Tested on: MS2 coat protein
Assay: apparent KD of MS2 coat protein; designed switch direction (-1 OFF switch, 1 ON switch): -1; higher = weaker reporter binding
Outline: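 Designed RNA switches with common flanks were transcribed on Illumina chips by stalled E. coli RNA polymerase and titrated with SNAP-549-labelled MS2 coat protein, from 0.7 or 1.5 nM doubling to 3 µM, in Tris-HCl pH 7.5 buffer with KCl, MgCl2, BSA, DTT, tRNA and Tween-20. Steps lasted 0.8–1.5 h (lowest) to 10–20 min (highest). Titrations ran without input, with 200 uM small-molecule ligand, or with an oligonucleotide input. Normalised cluster fluorescence was curve-fitted, and apparent KD is the per-design median over clusters.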

[1] = input ligand: microRNA oligo, concentration not stated
[2] = Eterna round: R95, input ligand: microRNA oligo, concentration not stated
[3] = Eterna round: R95, input ligand: FMN 200 uM
[4] = Eterna round: R95, input ligand: none

Sequence: CUCGUGCAGCUUUGCUGUACGAGUACAUGAGGAUCACCCAUGUAGGAUAUGGUACGCAAAGCGUGCCAGAAGGACGUGCGUUAG [Mat - Exclusion NG 3 - Mod of JL - D93] (Eterna round: R96, puzzle: Exclusion NG 3)
- apparent KD of MS2 coat protein (input ligand: FMN 200 uM): 78.7 nM
- apparent KD of MS2 coat protein [1]: 29.9 nM
- apparent KD of MS2 coat protein (input ligand: none): 33.1 nM

Sequence: CUCGUGCAGCUUUGCUGUACGAGUACAUGAGGAUCACCCAUGUAGGAUAUGGUACGCUUUGCGUGCCAGAAGGACGUGCGUUAG [JL EXNG3 1.41] (Eterna round: R96, puzzle: Exclusion NG 3)
- apparent KD of MS2 coat protein (input ligand: FMN 200 uM): 78.6 nM
- apparent KD of MS2 coat protein [1]: 25.9 nM
- apparent KD of MS2 coat protein (input ligand: none): 28.9 nM

Sequence: CUCGUGUGAGGAUAUCAACGUCAAGCGUGAGCGAGACGAGAUGAGAAGGUACAUGAGGAUCACCCAUGUGCUCA [Eternabot (Original) Solution 25] (Eterna round: R97, puzzle: Exclusion 4)
- apparent KD of MS2 coat protein (input ligand: FMN 200 uM): 83.1 nM
- apparent KD of MS2 coat protein (input ligand: none): 20 nM

Sequence: CUCUGCACGCUGCGGUCCUACAUGAGGAUCACCCAUGUGGUCUGGUGGCGUGGGUCGCCGGACUUGGCUCGUCUUGG [salish99_S_TOV1_R5_047] (Eterna round: R97, puzzle: Sensor, turn-off variant 1)
- apparent KD of MS2 coat protein (input ligand: FMN 200 uM): 15.4 nM
- apparent KD of MS2 coat protein (input ligand: none): 15.8 nM

Sequence: CUCUUGUUAGGAUAUCAAACCGGCGGCGGAGCCGCCGGUAGUGAGAAGGGACAUGAGGAUCACCCAUGUAAGAA [Isarcedi] (puzzle: Exclusion 4)
- apparent KD of MS2 coat protein [2]: 65.2 nM

Sequence: CUGAGAUGAGGAUAUACAUGAGGAUCACCCAUGUAAAGUAGCUUGCGUACAGGCAGAUGUAGAAGGCAUUUCGG [Mod of JL 4 - Jieux - Exclusion 3] (Eterna round: R97, puzzle: Exclusion 3)
- apparent KD of MS2 coat protein (input ligand: FMN 200 uM): 44.7 nM
- apparent KD of MS2 coat protein (input ligand: none): 25.3 nM

Sequence: CUGAGCAGACGGAGAUCCAACAUGAGGAUCACCCAUGUCUCAAAAGCUUUUUGCUCGUCUUACCCUCCUCUGCUCUC [Ticeisor] (puzzle: Sensor v3, turn-off variant 1)
- apparent KD of MS2 coat protein [3]: 19.1 nM
- apparent KD of MS2 coat protein [2]: 40.3 nM
- apparent KD of MS2 coat protein [4]: 15.1 nM

Sequence: CUGAGCAGACGGAGAUCCAACAUGAGGAUCACCCAUGUCUCAAAAGCUUUUUGCUUGUCUUAUCCUCCUCUGUUCAC [Esqutian] (Eterna round: R96, puzzle: Sensor v3, turn-off variant 1)
- apparent KD of MS2 coat protein (input ligand: FMN 200 uM): 13.6 nM
- apparent KD of MS2 coat protein [1]: 222 nM
- apparent KD of MS2 coat protein (input ligand: none): 16.1 nM

Sequence: CUGAGCAGACGGAGAUCCAACAUGAGGAUCACCCAUGUCUCAAAAGCUUUUUGCUUGUCUUAUCCUCCUCUGUUCAC [Esqutian] (puzzle: Sensor v3, turn-off variant 1)
- apparent KD of MS2 coat protein [3]: 14 nM
- apparent KD of MS2 coat protein [2]: 390 nM
- apparent KD of MS2 coat protein [4]: 12.3 nM

Sequence: CUGAGCAGACGGAGAUCCAACAUGAGGAUCACCCAUGUCUCAUAAGCUUUUUGCUCAUCUUAUUGUACCUUGGUGCA [Mat - Sensor v3 - turn-off var 1 - JL Mod - D21] (puzzle: Sensor v3, turn-off variant 1)
- apparent KD of MS2 coat protein [3]: 426 nM
- apparent KD of MS2 coat protein [2]: 15.6 nM
- apparent KD of MS2 coat protein [4]: 290 nM

Sequence: CUGAGCAGACGGAGAUCCAACAUGAGGAUCACCCAUGUCUCAUAAGCUUUUUGUUCAUCUUAUUGUACCUUGGUGCU [JL ViennaUCT Edcesobi mod 4] (puzzle: Sensor v3, turn-off variant 1)
- apparent KD of MS2 coat protein [3]: 149 nM
- apparent KD of MS2 coat protein [2]: 24.6 nM
- apparent KD of MS2 coat protein [4]: 252 nM

Sequence: CUGAGCUGAGGAUAUACAUGAGGAUCACCCAUGUGGGCCUGCGAGGUUACUUGCACAUGUAGAAGGCAGUUCGG [Extended Mod of JL - ex3-3.35 Brourd mod] (puzzle: Exclusion 3)
- apparent KD of MS2 coat protein [2]: 74.4 nM

Sequence: CUGAGGUAGCGGUCCUAUGACAUGAGGAUCACCCAUGUACCUUGCUUUGAGCUUUAAGCUCGUCUUAUGAUUCUCGG [Mat - Sensor v3 - turn-off var 1 - JL Mod - D44] (puzzle: Sensor v3, turn-off variant 1)
- apparent KD of MS2 coat protein [3]: 504 nM
- apparent KD of MS2 coat protein [2]: 625 nM
- apparent KD of MS2 coat protein [4]: 861 nM

Sequence: CUGAUGUUAGGAUAUCAGGCGCCCGCCACUAGCAAGGCGCAUGAGAAGGGACAUGAGGAUCACCCAUGUAGUAA [Xexeonza] (puzzle: Exclusion 4)
- apparent KD of MS2 coat protein [2]: 27.7 nM

Sequence: CUGAUGUUAGGAUAUCAGGUCACGCGCGAAGGCGCGCGGCAUGAGAAGGAACAUGAGGAUCACCCAUGUGACGA [Reisquso] (Eterna round: R96, puzzle: Exclusion 4)
- apparent KD of MS2 coat protein (input ligand: FMN 200 uM): 305 nM
- apparent KD of MS2 coat protein [1]: 29.6 nM
- apparent KD of MS2 coat protein (input ligand: none): 43.3 nM

Sequence: CUGCUCCGUGUAGGAUAUGCGCGCAACCAACGCGCAGAAGGACAUGAGGAUCACCCAUGUAUGUUAUUAUCACGUGAAGCGUCC [Design 30] (Eterna round: R96, puzzle: Exclusion NG 1)
- apparent KD of MS2 coat protein (input ligand: FMN 200 uM): 56.7 nM
- apparent KD of MS2 coat protein [1]: 19.9 nM
- apparent KD of MS2 coat protein (input ligand: none): 18.2 nM

Sequence: CUGGAAAACGAGGAUAUGCACCGGCUCGCUGACGCAGAAGGCGACACAUGAGGAUCACCCAUGUCGGUACGCGA [salish99_ex6_r004_449] (Eterna round: R97, puzzle: Exclusion 6)
- apparent KD of MS2 coat protein (input ligand: FMN 200 uM): 17.2 nM
- apparent KD of MS2 coat protein (input ligand: none): 18.8 nM

Sequence: CUGGACCGAGGAUAUAUUAUGUGAAACAUGAGGAUCACCCAUGUAAUAUGAUGGAUGUAAAUAGAAGGCGGUCUAG [Mat - Exclusion 5 - JL mod - D28] (puzzle: Exclusion 5)
- apparent KD of MS2 coat protein [3]: 34.5 nM
- apparent KD of MS2 coat protein [2]: 35.1 nM
- apparent KD of MS2 coat protein [4]: 47.3 nM

Sequence: CUGGAGUCAGGAUAUGACGCAGUCCGCCCAAAGGGCGGAAAUCAGAAGGGACUUGAGGAUCACCCAAGUAAAAG [Gecear] (Eterna round: R97, puzzle: Exclusion 4)
- apparent KD of MS2 coat protein (input ligand: FMN 200 uM): 28.8 nM
- apparent KD of MS2 coat protein (input ligand: none): 31.4 nM

Sequence: CUGGUCCGAGGAUAUAUUAUGUGAUACAUGAGGAUCACCCAUGUUAUAUGAUGGAAAUAAAUAGAAGGCGGACUAG [Mat - Exclusion 5 - JL mod - D67] (puzzle: Exclusion 5)
- apparent KD of MS2 coat protein [3]: 79 nM
- apparent KD of MS2 coat protein [2]: 70.5 nM
- apparent KD of MS2 coat protein [4]: 69 nM

Sequence: CUGGUCCGAGGAUAUAUUUUGUGAAACAUGAGGAUCACCCAUGUAAUAAAAUGGAUAUAAAUAGAAGGCGGACUAG [Mat - Exclusion 5 - JL mod - D41] (puzzle: Exclusion 5)
- apparent KD of MS2 coat protein [3]: 25.1 nM
- apparent KD of MS2 coat protein [2]: 21 nM
- apparent KD of MS2 coat protein [4]: 18.1 nM

Sequence: CUGGUCCGAGGAUAUAUUUUGUGAUACAUGAGGAUCACCCAUGUAAUAAGAUGGAAGUAAAUAGAAGGCGGACUAG [Mat - Exclusion 5 - JL mod - D47] (puzzle: Exclusion 5)
- apparent KD of MS2 coat protein [3]: 69.3 nM
- apparent KD of MS2 coat protein [2]: 125 nM
- apparent KD of MS2 coat protein [4]: 150 nM

Sequence: CUGGUCUAUGUAGGAUAUGGUGUAUAUGUAUUACCAGAAGGACAUGAGGAUCACCCAUGUGUCGUGGUAUGAGUAGGUGAUGUU [Random] (Eterna round: R96, puzzle: Exclusion NG 1)
- apparent KD of MS2 coat protein [1]: 40.2 nM

Sequence: CUGGUGUGAGGAUAUCAGGGCACGCCCAAGGGCGUACCAAAUGAGAAGGCACAUGAGGAUCACCCAUGUGGGAC [Lasoena] (puzzle: Exclusion 4)
- apparent KD of MS2 coat protein [2]: 32 nM

Sequence: CUGUACUGAGGAUAUACAUGAGGAUCACCCAUGUGAUUUAGUGCACGCGUACGUGUACGUAGAAGGCAGUACAG [Mat - Exclusion 3 - Eli Mod - D36] (Eterna round: R97, puzzle: Exclusion 3)
- apparent KD of MS2 coat protein (input ligand: FMN 200 uM): 183 nM
- apparent KD of MS2 coat protein (input ligand: none): 25.2 nM

Sequence: CUGUACUGAGGAUAUACAUGAGGAUCACCCAUGUGUACCAGCUAGGAAACUAGCAAAAGUAGAAGGCAGUACAG [Mat - Exclusion 3 - Eli Mod - D62] (Eterna round: R97, puzzle: Exclusion 3)
- apparent KD of MS2 coat protein (input ligand: FMN 200 uM): 27.6 nM
- apparent KD of MS2 coat protein (input ligand: none): 13.3 nM

Sequence: CUGUACUGAGGAUAUACAUGAGGAUCACCCAUGUUCUUCGGCUAGGAAACUAGCAAAGGUAGAAGGCAGUACAG [Mat - Exclusion 3 - Eli Mod - D68] (Eterna round: R97, puzzle: Exclusion 3)
- apparent KD of MS2 coat protein (input ligand: FMN 200 uM): 234 nM
- apparent KD of MS2 coat protein (input ligand: none): 15.1 nM

Sequence: CUGUGAUGAGGAUAUACAUGAGGAUCACCCAUGUGUCCUCUGAUGGGUAGGGACCCUGGUAGAAGGCAUUGAGA [Eternabot (L1) Solution 52] (Eterna round: R97, puzzle: Exclusion 3)
- apparent KD of MS2 coat protein (input ligand: FMN 200 uM): 19.2 nM
- apparent KD of MS2 coat protein (input ligand: none): 15.5 nM

Sequence: CUGUGCACGCUGCGGUCCUACAUGAGGAUCACCCAUGUGGUCUGGUGGCGUGGGUCACCGGACUUGGCUCGUCUUGC [salish99_S_TOV1_R5_062] (Eterna round: R97, puzzle: Sensor, turn-off variant 1)
- apparent KD of MS2 coat protein (input ligand: FMN 200 uM): 22.9 nM
- apparent KD of MS2 coat protein (input ligand: none): 22.5 nM

Sequence: CUGUGUAGACAGGAUAUGCUGUACAAAAGUACAGCAGAAGGGUCUACAUGAGGAUCACCCAUGUUUACUUCAUG [)mei Ex6 B23] (Eterna round: R97, puzzle: Exclusion 6)
- apparent KD of MS2 coat protein (input ligand: FMN 200 uM): 20.4 nM
- apparent KD of MS2 coat protein (input ligand: none): 98.4 nM

Sequence: CUUAGACAUGAGGAUCACCCAUGUGAGGAUAUGAUGCAGCAGUGGUCUACGCUGUGCAUCAGAAGGCACAUAUG [mod of disincluded 3 v.3 (my top score 87 - 28% A's)] (puzzle: Exclusion 1)
- apparent KD of MS2 coat protein [2]: 108 nM

Sequence: CUUAGACAUGAGGAUCACCCAUGUGAGGAUAUGAUGCGAAUGAAGAAAGAAGGAAGCAUCAGAAGGCACAUAUG [Mat - Mod of Hyphema D26] (puzzle: Exclusion 1)
- apparent KD of MS2 coat protein [3]: 323 nM
- apparent KD of MS2 coat protein [2]: 163 nM
- apparent KD of MS2 coat protein [4]: 143 nM

Sequence: CUUCGACAUGAGGAUCACCCAUGUCAGGAUAUUGUGUAUCGGGUUUUUUACGGAUAGGCAAGAAGGGAUGUGUG [LRO-Excl1-06] (puzzle: Exclusion 1)
- apparent KD of MS2 coat protein [2]: 32.7 nM

Sequence: CUUCUGUGAGGAUAUUAGUAGUAAAUGAAUAAAAUUAUUACUGAGAAGGCACAUGAGGAUCACCCAUGUUCCUC [Mat - Exclusion 4 - Eli Mod - D12] (Eterna round: R97, puzzle: Exclusion 4)
- apparent KD of MS2 coat protein (input ligand: FMN 200 uM): 386 nM
- apparent KD of MS2 coat protein (input ligand: none): 36.3 nM

Source: the supplement of paper PMC9170038
